From the supplement of paper PMC9170038

Tests used:
MS2 coat protein [1] = test: apparent KD of MS2 coat protein, switch ON state; designed switch direction (-1 OFF switch, 1 ON switch): 1; higher = weaker reporter binding; conditions: FMN input: 0 or 200 uM; Eterna round: R93 (includes R88 designs)
Outline: (§1)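 Values are apparent KD, taken as the median for each design of fits to normalised binding curves from individual clusters. The designed RNA switches were transcribed on-chip from Illumina sequencing clusters and exposed to SNAP-549-labelled MS2 coat protein at twofold increasing amounts from 0.7 or 1.5 nM to 3 µM. Titration used 100 mM Tris-HCl pH 7.5, 80 mM KCl and 4 mM MgCl2, without or with constant ligand.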

MS2 coat protein [2] = test: apparent KD of MS2 coat protein, switch OFF state (with FMN for OFF switches, without FMN for ON switches); designed switch direction (-1 OFF switch, 1 ON switch): 1; higher = weaker reporter binding; conditions: FMN input: 0 or 200 uM; Eterna round: R93 (includes R88 designs)
Outline: as §1

Sequence | apparent KD of MS2 coat protein (MS2 coat protein [1]) | apparent KD of MS2 coat protein (MS2 coat protein [2])
GUAUAUAUGAGGUAGGAUAUCCAAAAUAAAACAUGAGGAUCACCCAUGUAAAUAAAUAAUAAAUGGGAGAAGGACCACAUAUAUAC [Ex6 sub 3] | 16.2 nM | 34.2 nM
GUGAGACAUGAGGAUCACCCAUGUACGCGUCAGCAAGGAUAUGGGAAUAAAAGACAGAGACCAGAAGGUGCUGUUG [Arzaerri] | 22.9 nM | 67.5 nM
GUGGACAUAGUUCAGGAUAUAUGAAUAGUCACAUGAGGAUCACCCAUGUCCAUUUAUAUGGGCACAUAGAAGGGAGGUAGUUAAC [Mat - Same state - Malcolm Mod - D124] | 451 nM | 744 nM
UAAAAACAUGAGGAUCACCCAUGUGAGAACAUGGGAGGAUAUACAAAGACGAAAGUCGAAGUAGAAGGCCUAAAAU [Mat - Same State 1 - Mod - D173] | 178 nM | 25.7 nM
UAAAAACAUGAGGAUCACCCAUGUGAGAACAUGGGAGGAUAUACAAGGACGAAAGUCAAGGUAGAAGGCCUAAAAU [Mat - Same State 1 - Mod - D175] | 160 nM | 29.3 nM
UAAAAACAUGAGGAUCACCCAUGUGAGAACAUGGGAGGAUAUACGAGGACGAAAGUCAAAGUAGAAGGCCUAAAAG [Garnet 84] | 272 nM | 101 nM
UAAUAAUAAACCAAGGAUAUGGAGUUUCCAACAUGAGGAUCACCCAUGUUUUGCUUGUAAUCGAUCCAGAAGGUGGAGCCAAAUA [JR_SS002_Sub1006] | 35.6 nM | 68.4 nM
UACAGACAUGAGGAUCACCCAUGUAGAAUUAUGGGAGGAUAUACAAAGACGAGAGUCAGAGUAGAAGGCCUAGGAC [salish99-ss1-166] | 27.3 nM | 62.7 nM
UAUAGACAUGAGGAUCACCCAUGUAGAAUUAUGGGAGGAUAUACAAAGACGAGAGUCAGAGUAGAAGGCCUAGGAC [salish99-ss1-155] | 22.6 nM | 49.6 nM
UAUCCGGCAGUGUAGGAUAUGUUGUAGUAAACAUGAGGAUCACCCAUGUGGAUUAUAUAAGAUUCACAGAAGGGCACUGCAUUGC [Laonis] | 265 nM | 226 nM
UCGUCCUCGUGCUAGGAUAUCCAUCGUAAAACAUGAGGAUCACCCAUGUAGAAAUGCGCCGACGAGGAGAAGGAGCGAUGUGGAU [Lazabima] | 14.5 nM | 18.5 nM
UGAAGACAUGAGGAUCACCCAUGUGGGAAUAUGGGAGGAUAUACAAAGACGAGAGUCAGAGUAGAAGGCCUAGGAU [salish99-ss1-96] | 36.7 nM | 154 nM
UGGAGACAUGAGGAUCACCCAUGUGAGAAGAGGCGAGGAUAUCGAAAGAAAGAAGAGAAACGAGAAGGCGCGAGAA [salish99-SS1-033] | 13 nM | 36.7 nM
UGGAGACAUGAGGAUCACCCAUGUGAGAAGAGGCGAGGAUAUCGAAAGAAAGAAGAGAAACGAGAAGGCGCGAGAG [salish99-SS1-041] | 42.7 nM | 51.2 nM
UGGAGACAUGAGGAUCACCCAUGUGAGAAGAGGCGAGGAUAUCGAAAGAAAGAAGAGAAACGAGAAGGCGCGAGUC [salish99-SS1-046] | 28.3 nM | 41 nM
UGUAGGAAGAGAGAGGAUAUCCAAAGGAAAACAUGAGGAUCACCCAUGUAAAAGGUAGGAAAUUGGGAGAAGGCUCAAGAGAGAG [salish99-ss2-082] | 29 nM | 52.7 nM
UUAAAACAUGAGGAUCACCCAUGUAGAAAUAUGGGAGGAUAUACGAAGACGAAAGUCAAAGUAGAAGGCCUAAAUU [Mat - Same State 1 - Eli mod - D112] | 25.2 nM | 64.9 nM
UUACGUACGUAUGAGGAUAUCCAUAAUAAGACAUGAGGAUCACCCAUGUAAACAAAACAAUAAUGGGAGAAGGCAUACGUACGAA [Mat - Same state - Malcolm Mod - D135] | 23.2 nM | 47.3 nM
